Experimental data reported in patent US7223734B2, “Plasma protein-binding ligands” (The American National Red Cross, priority 2002, dated 2007).
Non-standard residues stand in square brackets, D forms with d. No end group written: not given here.

What was measured:
Type in all cases: binding
Apo-A1 lipoprotein = target: T1, Apo-A1 lipoprotein (Homo sapiens, UniProt P02647); test: Apo-A1 lipoprotein purification from fibrinogen-depleted plasma on peptide resin column (Example 4); details: for removal / depletion of Apo-A1 lipoprotein in flow-through: fibrinogen-depleted plasma, 14 ml on 2.3 ml resin, SDS-PAGE
T1 construct: from tissue; host or cells: human plasma (whole or fibrinogen-depleted)
Procedure: (§1) Apo-A1 lipoprotein purification was accomplished with D-WWLHIN (SEQ ID NO: 33) peptides and several analogs. Indeed, about 100% Apo-A1 lipoprotein depletion from plasma was repeatedly obtained with D-WWLHAN (SEQ ID NO: 56) and D-WWLHIN (SEQ ID NO: […]). Fourteen milliliters of fibrinogen-depleted plasma was loaded onto a 2.3 ml column (CF=0.785 cm^2) at 0.4 ml/min. (LV=30 cm/H; RT=5.8) that had been equilibrated with 0.14 M NaCl, 0.020 M sodium citrate, pH 7.0 (EQ buffer). After the column was washed with EQ buffer to baseline, Apo-A1 lipoprotein was eluted with 2.0 M NaCl, 1% Tween-20, 0.020M sodium citrate, pH 7.0. The column was regenerated with 2.0 M guanidine-HCl, 2% Sarkosyl, and 2% acetic acid and stored in 20% methanol.

albumin = target: T2, albumin (Homo sapiens, UniProt P02768); test: Albumin recovery in Apo-A1 purification run (Example 4); details: load 372 mg
T2 construct: from tissue; host or cells: human plasma (fibrinogen-depleted or F1-Apo-depleted)
Procedure: as §1

API = target: T3, API (Homo sapiens, UniProt P01009); test: API recovery in Apo-A1 purification run (Example 4); details: load 10.6 mg
T3 construct: from tissue; host or cells: human plasma (whole, fibrinogen-depleted or F1-Apo-depleted)
Procedure: as §1

T1 sequence (P02647 25-267 limits assumed): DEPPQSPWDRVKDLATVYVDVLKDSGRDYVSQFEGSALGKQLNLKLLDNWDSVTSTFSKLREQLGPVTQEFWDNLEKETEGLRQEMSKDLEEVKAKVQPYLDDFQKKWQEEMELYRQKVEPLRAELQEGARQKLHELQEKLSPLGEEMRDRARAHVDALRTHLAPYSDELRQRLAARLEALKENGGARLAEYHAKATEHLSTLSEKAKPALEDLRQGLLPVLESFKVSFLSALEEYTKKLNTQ
T3 sequence (P01009 25-418): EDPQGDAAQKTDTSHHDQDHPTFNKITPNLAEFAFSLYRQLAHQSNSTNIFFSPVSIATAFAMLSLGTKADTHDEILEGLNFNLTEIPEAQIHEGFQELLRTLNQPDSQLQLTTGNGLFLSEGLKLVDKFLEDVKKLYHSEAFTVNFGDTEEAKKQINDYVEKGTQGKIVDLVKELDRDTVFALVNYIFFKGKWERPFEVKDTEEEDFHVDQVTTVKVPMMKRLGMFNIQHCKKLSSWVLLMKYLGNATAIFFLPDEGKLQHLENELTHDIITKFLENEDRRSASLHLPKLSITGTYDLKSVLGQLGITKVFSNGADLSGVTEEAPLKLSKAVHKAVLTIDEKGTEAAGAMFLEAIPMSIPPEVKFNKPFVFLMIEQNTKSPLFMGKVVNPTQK

Apo-A1 Elution (Apo-A1 lipoprotein; 2.0 M NaCl, 1% Tween-20 eluate, load 12.9 mg): 9.1 mg
removal / depletion of Apo-A1 lipoprotein in flow-through (Apo-A1 lipoprotein): Complete Apo-A1 lipoprotein depletion
removal / depletion of Apo-A1 lipoprotein in flow-through (Apo-A1 lipoprotein; listed as WFLHIN): complete removal
Albumin Flow Through (albumin): 386 mg
API Flow Through (API): 12.5 mg
Substance: WFLHIN ([dW]FLHIN; not fully specified (residues 2, 3, 4, 5, 6)) [D-WFLHIN]
